# According to the nanobody polyreactivity screen of Harvey et al. (2022):
# Assay: yeast display, Sf9 membrane polyspecificity reagent, FACS + sequencing; frameworks hold sequencing errors
# Procedure, shortened: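 Polyreactivity labels are assigned by the sorting gate from which each nanobody was recovered. The gates were low and high (top ~1%), set on anti-HA fluorescence for expression and streptavidin fluorescence for reagent binding. Before sorting, galactose-induced (36–48 hours) yeast display cells were stained for 1 hour at 4 °C with 10% biotinylated, detergent-solubilized Sf9 membrane reagent.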
row,Sequence,polyreactivity (PSR sort gate)
1,QVQLVESGGGLVQAGGSLRLSCAASGSTFRINAMGWYRQAPGKERELVADINSGGNTTYADSVKGRFTISRDNAKNTVYLQMNSLKPEDTAVYYCNAPYSFFWQQMNYWGQGTQVTVSS,low polyreactivity
2,QVQLVESGGGLVQAGGSLRLSCAASGSTFRIYAMGWYRQAPGKERELVAAIRRRGASTYYADSVKGRFTISRDNAKNTVYLQMISLKPEDTAVYYCAASYFWDRVPGRGIHDYWGQGTQVTVSS,high polyreactivity
3,QVQLVESGGGLVQAGGSLRLSCAASGSTFRIYAMGWYRQAPGKERELVATITSGSSTYADSVKGRFTISRDNAKNTVYLQMNSLKPEDTAVYYCAARRKGGHISYGYDYWGQGTQVTVSS,high polyreactivity
4,QVQLVESGGGLVQAGGSLRLSCAASGSTFRKNAMGWYRQAPGKERELVASISISGGRTNYADSVKGRFTISRDNAKNTVYLQMNSLKPEDTAVYYCAAGYPWYQLPRPLEYYYWGQGTQVTVSS,high polyreactivity
5,QVQLVESGGGLVQAGGSLRLSCAASGSTFRKYAMGWYRQAPGKERELVAAISKSGGSTYYADSVKGRFTISRDNAKNTVYLQMNSLKPEDTAVYYCNARKRTKLSYPKFDYWGQGTQVTVSS,high polyreactivity
6,QVQLVESGGGLVQAGGSLRLSCAASGSTFRLYAMGWYRPAPGKERELVAGISRTGTSTYYADSVKGRFTISRDNAKNTVYLQMNSLKPEDTAVYYCAAVRYWSDYDYWGQGTQVTVSS,high polyreactivity
7,QVQLVESGGGLVQAGGSLRLSCAASGSTFRLYPMGWYRQAPGKERELVAAISRSGGSTYYADSVKGRFTISRDNAKNTVYLQMNRLKPEDTAVYYCAKRRPLYAHPDDYWGQGTQVTVSS,low polyreactivity
8,QVQLVESGGGLVQAGGSLRLSCAASGSTFRPNAMGWYRQAPGKERELVAAINRGGRTNYADSVKGRFTISRDNAKNTVYLQMISLKPEDTAVYYCAAYIAGRYGARGYDYWGQGTQVTVSS,high polyreactivity
9,QVQLVESGGGLVQAGGSLRLSCAASGSTFRQNAMGWYRQAPGKERELVAAISSIGDSTNYADSVKGRFTISRDNAKNTVYLQMNSLKPEDTAVYYCAARTVQQRRRLYYWGQGTQVTVSS,high polyreactivity
10,QVQLVESGGGLVQAGGSLRLSCAASGSTFRQYAMGWYRQEPGKERELVAAITWRGDNTYYADSVKGRFTISRDNAKNTVYLQMNSLKPEDTAVYYCAAEYTVYVTDWYDYYYWGQGTQVTVSS,low polyreactivity
11,QVQLVESGGGLVQAGGSLRLSCAASGSTFRRKVMGGYRQAPGKERELVASIRSGGTTNYADSVKGRFTISRDNAKNTVYLQMNSLKPEDTAVYYCNKRLFWYRHYYYLGQGTQVTVSS,high polyreactivity
12,QVQLVESGGGLVQAGGSLRLSCAASGSTFRRNAMGWYRQAPGKERELVAAISRRGGSTYYADSVKGRFTISRDNAKNTVYLQMNSLKPEDTAVYYCAADNTQVRPKYDYWGQGTQVTVSS,high polyreactivity
13,QVQLVESGGGLVQAGGSLRLSCAASGSTFRRNAMGWYRQAPGKERELVAAISTSGGTTYYADSVKGRFTISRDNAKNTVYLQMNSLKPEDTAVYYCNKGGISGRDYWGLGTQVTVSS,high polyreactivity
14,QVQLVESGGGLVQAGGSLRLSCAASGSTFRRNAMGWYRQAPGKERELVARISYRGGSTYYADSVKGRFTISRDNAKNTVYLQMNSLKPEDTAVYYCAARVYGVPEYDYWGQGTQVTVSS,low polyreactivity
15,QVQLVESGGGLVQAGGSLRLSCAASGSTFRRNDMGWYRQAPGKERELVAAITSGGITNYADSVKGRFTISRDNAKNTVYLQMNSLKPEDTAVYYCNKDSDLHHYHTEFDYWGQGTQVTVSS,low polyreactivity
16,QVQLVESGGGLVQAGGSLRLSCAASGSTFRRNTMGWYREAPGKEREFVAALSRRGGSTYYADSVKGRFTISRDNAKNTVYFQMNRLKPEDTGVYYCAAPGLSRLYNVYYWPYDYWGQGTQVTVSS,high polyreactivity
17,QVQLVESGGGLVQAGGSLRLSCAASGSTFRRYAMGGYRQAPGKERELVAAISRSGGTTYYADSVKGRFTISRDNAKNTVYLQMNSLKPEDTAVYYCNARYPVVRYDYWGQGTQVTVSS,high polyreactivity
18,QVQLVESGGGLVQAGGSLRLSCAASGSTFRRYAMGWYRQAPGKERELVAAISSGGSTYYADSVKGRFTISRDNAKNTVYLQMNSLKPEDTALYYCAKRPLKRQIPAVGYDYWGQGTQVTVSS,high polyreactivity
19,QVQLVESGGGLVQAGGSLRLSCAASGSTFRRYAMGWYRQAPGKERELVAAISWSGGSTYYADSVKGRFTISRDNAKNTVYLQMNSLKPEDTAVYYCAARGVTSYWQDYDYWGQGTQVTVSS,low polyreactivity
20,QVQLVESGGGLVQAGGSLRLSCAASGSTFRRYAMGWYRQAPGKERELVAAITRRGGSTYYADSVKGRFTISRDNAKNTVYLQMNSLKPEDTAVYYCNAVPVVRAGHGYDSWGQGTQVTVSS,high polyreactivity
21,QVQLVESGGGLVQAGGSLRLSCAASGSTFRRYAMGWYRQAPGKERELVAAITTNGGSTYYADSVKGRFTISRDNAKNTVYLQMNSLKPEDTAVYYCNARWPYRQRGYDYWGQGTQVTVSS,high polyreactivity

row,Sequence,polyreactivity (PSR sort gate)
1,QVQLVESGGGLVQAGGSLRLSCAASGSTFRRYAMGWYRQAPGKERELVADIRGIGGSTYYADSVKGRFTISRDNAKNTVYLQMNSLKPEDTAVYYCNTSTLGGYYWGQGTQVTVSS,low polyreactivity
2,QVQLVESGGGLVQAGGSLRLSCAASGSTFRRYAMGWYRQAPGKERELVAGISYSGGRTYYADSVKGRFTISRDNAKNTVYLQMNSLKPEDTAVYYCAAKSFPSVRHHENYYWGQGTQVTVSS,high polyreactivity
3,QVQLVESGGGLVQAGGSLRLSCAASGSTFRRYARGWYRQAPGKERELVAAISTRGGSTYYADSVKGRFTISRDNAKNTVYLQMNSLKPEDTAVYYCAADEPKYTSSSSRRYGYWGQGTQVTVSS,high polyreactivity
4,QVQLVESGGGLVQAGGSLRLSCAASGSTFRSNAMGWYRQAPGKERELVAAITYSGGRTYYADSVKGRFTFSRDNAKNTVYLQMNSLIPEDTAVYYCAKVGWSRRYYYWGQGTQVTVSS,high polyreactivity
5,QVQLVESGGGLVQAGGSLRLSCAASGSTFRSYTMGWYRHAPGKEMELVARISRSGGSTYYADSVKGRFTISRDNAKNTVYLQMNSLKPEDTAVYYCAALYYVKPGQRYDYWGQGTQVTVSS,high polyreactivity
6,QVQLVESGGGLVQAGGSLRLSCAASGSTFRSYTMGWYRQAPGKERELVATIDWSAGNTRYADSVKGRFTISRDNAKNTVYLQMNSLKPEDTAVYYCNKDAGLWVSGTLYYWGQGTQVTVSS,low polyreactivity
7,QVQLVESGGGLVQAGGSLRLSCAASGSTFRTNVMGWYRQAPGKERELVAAITKRGSITYYADSVKGRFTISRDNAKNTVYLQMNSLKPEDTAVYYCAARKVAVRGYGYWGQGTQVTVSS,high polyreactivity
8,QVQLVESGGGLVQAGGSLRLSCAASGSTFRTYAMGWYRQAPGKERELVAAISGDTSTNYADSVKGRFTISRDNAKNTVYLQMNSLKPEDTAVYYCAAYWTTYATLWYDYWGQGTQVTVSS,low polyreactivity
9,QVQLVESGGGLVQAGGSLRLSCAASGSTFRTYAMGWYRQAPGKERELVAAISRSGGSTYYADSVKGRFTISRDNAKNTFYLQMNSLKPEDTAVYYCAARGGRGWTPSDYWGQGTQVTVSS,high polyreactivity
10,QVQLVESGGGLVQAGGSLRLSCAASGSTFRVYAMGWYRQAPGKERELVAAISGSGGSTYYADSVKGRFTISRDNAKNTVYLQMNSLKPEDTAVYYCAGRSWYTEYYWGQGTQVTVSS,high polyreactivity
11,QVQLVESGGGLVQAGGSLRLSCAASGSTFRVYAMGWYRQAPGKERELVAAISWSAGSTYYADSVKGRFTISRDNAKNTVYLQMNSLKPEDTAVYYCNADPDRYDWYTYLYLADYWGQGTQVTVSS,low polyreactivity
12,QVQLVESGGGLVQAGGSLRLSCAASGSTFRVYDMGWYRQAPGKERELVASLSYSVGSTYYADSVKGRFTISRDNAKNTVYLQMNSLKPEDTAVYYCAARPSYQPSSLARYDYWGQGTQVTVSS,low polyreactivity
13,QVQLVESGGGLVQAGGSLRLSCAASGSTFRVYGMGWSRQAPGKERELVAVIRWRGGRTSYADSVKGRFTISRDYAKNTVYLQLNSLKPEDTAVYYCARQRSYGRSSYSYGYDYWGQGTQVTVSS,high polyreactivity
14,QVQLVESGGGLVQAGGSLRLSCAASGSTFRWNAMGWYRQAPGKERELVAAISNGGSTNYADSVKGRFTISRDNAKNTVYLQMNSLIPEDTAVYYCATDGWYGQHYYDYDFDYYYWGQGTQVTVSS,low polyreactivity
15,QVQLVESGGGLVQAGGSLRLSCAASGSTFRWYAMGWYRQAPGKERELVAAITSGGSTNYADSVKGRFTISRDNAKNTVYLQMNSLKPEDTAVYYCNKVYPVVRYEPQYDYWGQGTQVTVSS,low polyreactivity
16,QVQLVESGGGLVQAGGSLRLSCAASGSTFRYNAMGWYRQAPGKARELVAAITSGGGTNYADSVKGRFTISRDNAKNTVYLQMNSLNPEDTAVYYCAAPWGLGSELLKRDYWGQGTQVTVSS,low polyreactivity
17,QVQLVESGGGLVQAGGSLRLSCAASGSTFRYNAMGWYRQAPGKERELFAAISFSGGSTYYADSVKGRFTISRDNAKNTVYLQMNSLKPEDTAVYYCAARWSSWPSYLAVPRLYYWGQGTQVTVSS,high polyreactivity
18,QVQLVESGGGLVQAGGSLRLSCAASGSTFRYNAMGWYRQAPGKERELVAAISRIGGTTYADSVKGRFTISRDNAKNTVYLQMNSLKPEDTAVYYCARANWGYYGPEYGYWGQGTQVTVSS,low polyreactivity
19,QVQLVESGGGLVQAGGSLRLSCAASGSTFRYNAMGWYRQAPGKERELVAAITSGGRTTYADSVKGRFTISRDNAKNPVYLQMNSLKPEDTAVYYCAARRYGRNWHYDYWGHGTQVTVSS,high polyreactivity
20,QVQLVESGGGLVQAGGSLRLSCAASGSTFRYNAMGWYRQAPGKERELVAAITSGGTTNYADSVKGRFTISRDNAKNTVYLQMNSLKPEDTAVYYCNAYVAYWGWVYRVDYWGQGTQVTVSS,low polyreactivity
